From patent US20090324601A1 (published 2009)
Values joined by “and” are separate entries in the source; they are usually repeats but may differ in a detail not shown here. Equal entries are not always repeated. Blank lines part the entries; values can stand above or below the binder they belong to.

Columns and labels:
[1] = target: T1, PDGFR-alpha on human osteosarcoma MG-63 cells (human, UniProt P16234 24-1089); experiment: cell-based or functional assay
[2] = target: T2, Recombinant human sPDGFR-alpha (R&D catalog# 322-PR/CF) (human, UniProt P16234 24-528); experiment: Biacore T100 SPR, 22 C, mAb immobilised on CM5, sPDGFR-alpha injected, 1:1 fit
T2 construct: extracellular domain; Bought reagent; also called soluble PDGFRa; recombinant soluble PDGFR-alpha extracellular domain
T2 sequence (P16234 24-528): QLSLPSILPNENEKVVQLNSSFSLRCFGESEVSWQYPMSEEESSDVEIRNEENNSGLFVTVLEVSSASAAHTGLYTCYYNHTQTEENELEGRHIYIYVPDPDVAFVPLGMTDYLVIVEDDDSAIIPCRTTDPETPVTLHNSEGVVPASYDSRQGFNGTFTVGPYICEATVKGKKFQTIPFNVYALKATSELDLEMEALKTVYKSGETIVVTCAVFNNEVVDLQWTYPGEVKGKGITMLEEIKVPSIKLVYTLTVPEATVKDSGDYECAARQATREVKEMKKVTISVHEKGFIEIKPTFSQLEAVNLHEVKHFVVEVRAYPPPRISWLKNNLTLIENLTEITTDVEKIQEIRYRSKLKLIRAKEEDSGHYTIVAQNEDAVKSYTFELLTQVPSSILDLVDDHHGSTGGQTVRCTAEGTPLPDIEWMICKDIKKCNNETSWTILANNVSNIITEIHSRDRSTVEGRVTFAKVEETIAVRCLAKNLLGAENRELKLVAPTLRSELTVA

[3] = target: T2, Recombinant human sPDGFR-alpha (R&D …); experiment: soluble PDGFRa binding ELISA, plate coated with recombinant human PDGFR-alpha
[4] = target: T3, Mouse PDGFRa on NIH3T3 cells (mouse, UniProt P26618 25-1089); experiment: FACS on NIH3T3 cells, 10 ug/ml antibody
T3 construct: whole, on cells; also called endogenous PDGFRa of NIH3T3 murine fibroblasts
T3 sequence (P26618 25-1089): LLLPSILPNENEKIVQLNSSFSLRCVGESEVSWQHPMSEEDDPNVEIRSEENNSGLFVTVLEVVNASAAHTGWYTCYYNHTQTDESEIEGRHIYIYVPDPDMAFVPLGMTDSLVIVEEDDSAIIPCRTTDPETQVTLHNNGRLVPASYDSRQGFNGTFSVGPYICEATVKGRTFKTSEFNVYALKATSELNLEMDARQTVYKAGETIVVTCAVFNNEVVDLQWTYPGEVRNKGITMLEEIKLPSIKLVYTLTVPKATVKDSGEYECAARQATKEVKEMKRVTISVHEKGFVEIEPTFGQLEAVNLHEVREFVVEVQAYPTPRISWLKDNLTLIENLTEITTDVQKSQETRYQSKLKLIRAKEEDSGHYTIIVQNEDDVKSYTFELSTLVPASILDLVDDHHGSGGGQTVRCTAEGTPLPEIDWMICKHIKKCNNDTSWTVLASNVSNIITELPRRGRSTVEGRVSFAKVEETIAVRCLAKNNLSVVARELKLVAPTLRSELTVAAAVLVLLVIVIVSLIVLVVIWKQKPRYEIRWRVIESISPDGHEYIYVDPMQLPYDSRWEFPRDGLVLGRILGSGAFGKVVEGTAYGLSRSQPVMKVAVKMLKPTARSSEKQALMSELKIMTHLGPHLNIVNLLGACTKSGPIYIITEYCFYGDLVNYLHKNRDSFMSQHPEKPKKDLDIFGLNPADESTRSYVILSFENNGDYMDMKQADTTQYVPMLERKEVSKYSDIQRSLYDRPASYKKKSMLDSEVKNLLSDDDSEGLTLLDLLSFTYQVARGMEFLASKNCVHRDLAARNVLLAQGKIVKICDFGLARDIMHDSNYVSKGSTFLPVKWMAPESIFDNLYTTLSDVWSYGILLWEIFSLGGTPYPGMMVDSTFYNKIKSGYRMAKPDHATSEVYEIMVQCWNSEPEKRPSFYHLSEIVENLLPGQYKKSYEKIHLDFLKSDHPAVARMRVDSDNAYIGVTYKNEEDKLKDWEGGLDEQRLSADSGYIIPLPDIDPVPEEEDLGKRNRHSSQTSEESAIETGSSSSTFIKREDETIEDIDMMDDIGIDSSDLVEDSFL

[5] = target: c-kit (UniProt P10721 26-520, limits assumed); experiment: method not described
c-kit, sequence (P10721 26-520 limits assumed): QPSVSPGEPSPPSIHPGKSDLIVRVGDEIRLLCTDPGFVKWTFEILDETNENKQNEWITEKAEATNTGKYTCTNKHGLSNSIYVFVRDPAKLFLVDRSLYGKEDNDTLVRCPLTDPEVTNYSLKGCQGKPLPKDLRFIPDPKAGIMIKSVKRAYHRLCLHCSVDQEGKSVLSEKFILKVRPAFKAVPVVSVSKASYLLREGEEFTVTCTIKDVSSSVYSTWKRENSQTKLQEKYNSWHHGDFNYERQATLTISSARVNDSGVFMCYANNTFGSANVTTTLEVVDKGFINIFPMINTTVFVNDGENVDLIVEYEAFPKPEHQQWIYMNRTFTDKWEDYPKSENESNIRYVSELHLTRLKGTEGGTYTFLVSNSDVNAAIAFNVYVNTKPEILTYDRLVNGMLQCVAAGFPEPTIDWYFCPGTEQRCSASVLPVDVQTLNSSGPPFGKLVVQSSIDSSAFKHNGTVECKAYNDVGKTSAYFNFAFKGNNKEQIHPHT

[6] = target: PDGFR-beta (UniProt P09619 33-530, limits assumed); experiment: method not described
PDGFR-beta, sequence (P09619 33-530 limits assumed): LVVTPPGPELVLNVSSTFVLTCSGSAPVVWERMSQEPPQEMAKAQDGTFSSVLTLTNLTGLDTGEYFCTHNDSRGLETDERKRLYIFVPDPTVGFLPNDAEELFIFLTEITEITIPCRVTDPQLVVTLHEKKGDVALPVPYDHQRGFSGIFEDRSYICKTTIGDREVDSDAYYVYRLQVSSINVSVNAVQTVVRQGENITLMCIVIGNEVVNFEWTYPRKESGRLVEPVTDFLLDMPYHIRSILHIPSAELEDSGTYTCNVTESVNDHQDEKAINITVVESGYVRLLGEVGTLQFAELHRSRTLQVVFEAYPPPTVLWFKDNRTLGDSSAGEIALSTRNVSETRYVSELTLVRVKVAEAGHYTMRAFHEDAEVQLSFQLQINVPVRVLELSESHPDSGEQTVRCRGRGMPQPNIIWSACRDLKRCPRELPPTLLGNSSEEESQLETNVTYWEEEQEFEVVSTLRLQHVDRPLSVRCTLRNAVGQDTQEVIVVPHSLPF

[7] = target: FLT3 (UniProt P36888 27-541, limits assumed); experiment: method not described
[8] = target: CSF-1R (UniProt P07333 20-512, limits assumed); experiment: method not described
CSF-1R, sequence (P07333 20-512 limits assumed): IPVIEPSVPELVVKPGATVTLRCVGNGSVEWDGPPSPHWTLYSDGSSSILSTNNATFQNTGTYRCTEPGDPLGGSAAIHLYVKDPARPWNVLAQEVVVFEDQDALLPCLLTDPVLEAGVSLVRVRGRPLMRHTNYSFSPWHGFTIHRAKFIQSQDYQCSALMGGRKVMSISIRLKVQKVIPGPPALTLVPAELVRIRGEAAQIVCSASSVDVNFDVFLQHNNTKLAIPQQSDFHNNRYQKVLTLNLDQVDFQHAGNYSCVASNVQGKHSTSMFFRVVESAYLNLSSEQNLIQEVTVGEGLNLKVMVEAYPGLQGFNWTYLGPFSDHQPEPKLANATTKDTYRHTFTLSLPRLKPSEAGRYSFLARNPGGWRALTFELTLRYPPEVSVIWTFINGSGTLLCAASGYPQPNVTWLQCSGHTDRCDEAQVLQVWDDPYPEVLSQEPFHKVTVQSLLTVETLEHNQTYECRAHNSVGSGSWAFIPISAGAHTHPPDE

[9] = target: T1, PDGFR-alpha on human osteosarcoma MG-63 …; experiment: FACS titration on MG-63 cells, 4 C, Cy5 goat anti-human detection
[10] = target: T1, PDGFR-alpha on human osteosarcoma MG-63 …; experiment: cell-based or functional assay; remark: listed apart in the source
[11] = target: T4, murine PDGFRa on NIH3T3 cells (murine, UniProt P26618 25-1089); experiment: FACS on NIH3T3 cells, goat anti-human IgG Cy5
T4 construct: whole, on cells; also called mouse PDGFR-alpha
T4 sequence (P26618 25-1089): as the sequence (P26618 25-1089) above

[12] = target: T5, PDGFR-alpha on MG-63 cells (human, UniProt P16234 24-1089); experiment: cell-based or functional assay
T5 sequence (P16234 24-1089): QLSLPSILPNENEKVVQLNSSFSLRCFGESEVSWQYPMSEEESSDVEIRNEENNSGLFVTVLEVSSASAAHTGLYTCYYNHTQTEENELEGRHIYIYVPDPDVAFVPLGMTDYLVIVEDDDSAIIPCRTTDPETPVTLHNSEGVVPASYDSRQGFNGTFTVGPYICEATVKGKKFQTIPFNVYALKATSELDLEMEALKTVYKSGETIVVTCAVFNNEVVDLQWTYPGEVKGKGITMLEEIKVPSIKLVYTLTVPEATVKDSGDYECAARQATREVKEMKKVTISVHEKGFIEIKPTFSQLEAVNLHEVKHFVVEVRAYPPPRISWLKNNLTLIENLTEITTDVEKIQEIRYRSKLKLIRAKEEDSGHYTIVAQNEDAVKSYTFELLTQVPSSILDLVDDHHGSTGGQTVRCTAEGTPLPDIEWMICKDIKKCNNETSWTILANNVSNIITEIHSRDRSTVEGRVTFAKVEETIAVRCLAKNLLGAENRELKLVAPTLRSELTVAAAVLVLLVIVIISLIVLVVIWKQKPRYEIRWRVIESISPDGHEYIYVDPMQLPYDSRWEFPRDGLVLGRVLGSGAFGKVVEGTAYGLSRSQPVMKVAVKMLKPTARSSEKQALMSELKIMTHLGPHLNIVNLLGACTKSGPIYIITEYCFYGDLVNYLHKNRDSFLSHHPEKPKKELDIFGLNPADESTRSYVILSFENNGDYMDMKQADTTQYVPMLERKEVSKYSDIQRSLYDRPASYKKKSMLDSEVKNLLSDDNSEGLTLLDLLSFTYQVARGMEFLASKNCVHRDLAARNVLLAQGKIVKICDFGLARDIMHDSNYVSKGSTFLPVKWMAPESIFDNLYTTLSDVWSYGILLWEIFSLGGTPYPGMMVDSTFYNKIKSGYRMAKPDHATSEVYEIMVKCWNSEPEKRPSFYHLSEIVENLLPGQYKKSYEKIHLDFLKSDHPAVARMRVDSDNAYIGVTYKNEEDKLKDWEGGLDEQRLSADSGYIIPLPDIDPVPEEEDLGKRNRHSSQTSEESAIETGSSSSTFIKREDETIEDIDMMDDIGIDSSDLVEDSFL

[13] = target: T5, PDGFR-alpha on MG-63 cells; experiment: cell-based or functional assay; remark: listed apart in the source
[14] = target: T5, PDGFR-alpha on MG-63 cells; experiment: FACS titration on MG-63 cells expressing PDGFR-alpha, 4 °C, Cy5 secondary antibody, nonlinear fit of geometric mean fluorescence
[15] = target: T4, murine PDGFRa on NIH3T3 cells; experiment: FACS on NIH3T3 cells, 10 ug/ml antibody, goat anti-human IgG Cy5

T1 sequence (P16234 24-1089): as above

binding result [4]: binds
binding result [5]: no binding
binding result [6]: no binding
binding result [7]: no binding
binding result [8]: no binding
B2: 2.175.3 (antibody, V domains shown)
VH: QVHLVESGGGLVKPGGSLRLSCAASGFTFSDYYMHWIRQAPGKGLEWVSYISRSGSLIYYVDSVKGRFTISRDNAKNSLNLQMNSLRAEDTAVYYCARGGPYSGSPFDYWGQGTLVTVSS
VL: DIQMTQSPSSLSASVGDRVTITCRPSQRISRYLNWYQQKPGKAPKFLIYAASSLPSGVPSRFSGSGSGTDFTLTISTLQPEDFATYYCQQSYSTPPWTFGQGTKVEIK
notes: Variable regions only

PROLIFERATION ASSAY: MG-63 CELLS, IC50 [12]: 2.1 nM
Average pTyr Inhibition [13]: 99%
Kd [14]: 0.057 nM
B6: 2.998.2 (antibody, V domains shown)
VH: QLQLQESGPGLVKPSETLSLTCTVSGDSISSFIYYWGWIRQPPGKGLEWIGTIYYSGSTYYNPSLKSRVTISVDTSKNQFSLKLRSVTAADTAVYYCARHHWVFDYWGQGTQVTVSS
VL: DIVLTQFPDFQSVTPKEKVTITCRASQVIGSSLHWYQQKPDQSPKLLIKYASQSFSGVPSRFSGSGSGTDFTLTINSLEVEDAATYYCHQSTILPWTFGQGTKVEVK

binding result [15]: binds
Proliferation Assay: IC50 ng/ml (1-6-06) [10]: 755 ng/mL
Proliferation Assay: IC50 ng/ml (1-23-06) [10]: 982 ng/mL
pTyr Assay: % Inhibition @ 2 µg/ml [10]: 97%
B7: 2.1623.2 (antibody, V domains shown)
VH: QVQLVESGGGLVKPGGSLRLSCAASGFTFSDYYMNWIRQAPGKGLEWVSFISSSGSTIYYADSVKGRFTISRDNAKNSLYLQMNSLRAEDTAVYYCARDGHIAARGMDVWGQGTTVTVSS
VL: DIQMTQSPSSLSASVGDRVTITCRASQSFSRYINWYQQKPGKAPKLLIYAASSLQGGVPSRFSGSGSGTDFTLAISSLQPEDFATYYCQQTYSTPPITFGQGTRLEIK

binding result [15]: binds
Proliferation Assay: IC50 ng/ml (1-6-06) [10]: 1120 ng/mL
Proliferation Assay: IC50 ng/ml (1-23-06) [10]: 2680 ng/mL
pTyr Assay: % Inhibition @ 2 µg/ml [10]: 98%
B10: 2.1853.3 (antibody, V domains shown)
VH: QVQLVESGGGLVKPGGSLRLSCAASGFTFSDYYMNWIRQAPGKGLEWVSYISSSGSIIYYADSVKGRFTISRDNAKNSLYLQMNSLRAEDTAVYYCARDGRIVARGMDVWGQGTTVTVSS
VL: DIQMTQSPSSLCASVGDRVTITCRASRSITRYLNWYQQKPGKAPKLLIYGASSLQSGVPSRFSGSGSGTDFTLTISSLQPEDFATYYCQQSYSTPPITFGQGTRLEIK

binding result [4]: binds
binding result [5]: no binding
binding result [6]: no binding
binding result [7]: no binding
binding result [8]: no binding
B11: 2.1853.3 (antibody, V domains shown)
VH: QVQLVESGGGLVKPGGSLRLSCAASGFTFSDYYMNWIRQAPGKGLEWVSYISSSGSIIYYADSVKGRFTISRDNAKNSLYLQMNSLRAEDTAVYYCARDGRIVARGMDVWGQGTTVTVSS
VL: DIQMTQSPSSLCASVGDRVTITCRASRSITRYLNWYQQKPGKAPKLLIYGASSLQSGVPSRFSGSGSGTDFTLTISSLQPEDFATYYCQQSYSTPPITFGQGTRLEIK
notes: Variable regions only

binding result [4]: binds
binding result [5]: no binding
binding result [6]: no binding
binding result [7]: no binding
binding result [8]: no binding
B12: 2.1623.2 (antibody, V domains shown)
VH: QVQLVESGGGLVKPGGSLRLSCAASGFTFSDYYMNWIRQAPGKGLEWVSFISSSGSTIYYADSVKGRFTISRDNAKNSLYLQMNSLRAEDTAVYYCARDGHIAARGMDVWGQGTTVTVSS
VL: DIQMTQSPSSLSASVGDRVTITCRASQSFSRYINWYQQKPGKAPKLLIYAASSLQGGVPSRFSGSGSGTDFTLAISSLQPEDFATYYCQQTYSTPPITFGQGTRLEIK
notes: Variable regions only

More lines, now with the values behind:

B1: 2.175.3 variant A (antibody, V domains shown)
VH: QVQLVESGGGLVKPGGSLRLSCAASGFTFSDYYMHWIRQAPGKGLEWVSYISRSGSLIYYVDSVKGRFTISRDNAKNSLYLQMNSLRAEDTAVYYCARGGPYSGSPFDYWGQGTLVTVSS
VL: DIQMTQSPSSLSASVGDRVTITCRPSQRISRYLNWYQQKPGKAPKLLIYAASSLPSGVPSRFSGSGSGTDFTLTISSLQPEDFATYYCQQSYSTPPWTFGQGTKVEIK
PTYR Assay IC50 [1]: 0.029 µg/mL
Kd [2]: 0.0071 nM
koff [2]: 2.53e-06 s⁻¹
kon [2]: 355000 M⁻¹ s⁻¹
IC50 [3]: 0.046 µg/mL

B3: 2.998.2 (antibody, V domains shown)
VH: QLQLQESGPGLVKPSETLSLTCTVSGDSISSFIYYWGWIRQPPGKGLEWIGTIYYSGSTYYNPSLKSRVTISVDTSKNQFSLKLRSVTAADTAVYYCARHHWVFDYWGQGTQVTVSS
VL: DIVLTQFPDFQSVTPKEKVTITCRASQVIGSSLHWYQQKPDQSPKLLIKYASQSFSGVPSRFSGSGSGTDFTLTINSLEVEDAATYYCHQSTILPWTFGQGTKVEVK
notes: identified by its values; also called mAb 2.998.2
Kd [9]: 0.057 nM
Kd [2]: 0.164 nM
koff [2]: 4.89e-05 s⁻¹
kon [2]: 298000 M⁻¹ s⁻¹
Proliferation Assay: IC50 ng/ml (1-6-06) [10]: 308 ng/mL
Proliferation Assay: IC50 ng/ml (1-23-06) [10]: 316 ng/mL
Proliferation Assay: IC50 (1-6-06) [10]: 2.05 nM
Proliferation Assay: IC50 (1-23-06) [10]: 2.1 nM
pTyr Assay: % Inhibition @ 2 µg/ml [10]: 99%
binding result [11]: no binding (tested: 10 ug/ml)

B4: 2.84.3 (antibody, V domains shown)
VH: QLQLQESGPGLVKPSETLSLTCTVSGGFISSSSYYWGWIRQPPGKGLEWIGTIYYSGTTYYNSSLKSRVTISVDTSQNQFSLKLSSVTAADTAVYYCARHHWVFDYWGQGTLVTVSS
VL: EVVLTQSPDFQSVTPKEKITITCRASQIIGTSLHWYQKKPDQSPKLLIKYASQSFSGVPSRFSGSGSGTEFTLTINSLEAEDTATYYCHQSTNLPWTFGQGTKVEIK
PROLIFERATION ASSAY: MG-63 CELLS, IC50 [12]: 481 ng/ml and 3.2 nM
Average pTyr Inhibition [13]: 98%
Kd [14]: 0.227 nM

B5: 2.84.3 (antibody, V domains shown)
VH: QLQLQESGPGLVKPSETLSLTCTVSGGFISSSSYYWGWIRQPPGKGLEWIGTIYYSGTTYYNSSLKSRVTISVDTSQNQFSLKLSSVTAADTAVYYCARHHWVFDYWGQGTLVTVSS
VL: EVVLTQSPDFQSVTPKEKITITCRASQIIGTSLHWYQKKPDQSPKLLIKYASQSFSGVPSRFSGSGSGTEFTLTINSLEAEDTATYYCHQSTNLPWTFGQGTKVEIK
Kd [9]: 0.227 nM
Proliferation Assay: IC50 ng/ml (1-6-06) [10]: 192 ng/mL
Proliferation Assay: IC50 ng/ml (1-23-06) [10]: 481 ng/mL
Proliferation Assay: IC50 (1-6-06) [10]: 1.3 nM
Proliferation Assay: IC50 (1-23-06) [10]: 3.2 nM
pTyr Assay: % Inhibition @ 2 µg/ml [10]: 98%
binding result [11]: no binding (tested: 10 ug/ml)

B8: 2.449.1 variant A (antibody, V domains shown)
VH: QVQLVESGGGLVKPGGSLRLSCAASGFTFSDYYMNWIRQAPGKGLEWVSYISSSGSIIYYADSVKGRFTISRDNAKNSLYLQMNSLRAEDTAVYYCAREGRIAARGMDVWGQGTTVTVSS
VL: DIQMTQSPSSLSASVGDRVSITCRPSQSFSRYINWYQQKPGKAPKLLIYAASSLVGGVPSRFSGSGSGTDFTLTISSLQPEDFATYYCQQTYSNPPITFGQGTRLEIK
notes: also called 2.449.1.3 Variant A; 2.449.1.3 variant A
PTYR Assay IC50 [1]: 0.031 µg/mL
Kd [2]: 0.0086 nM
koff [2]: 3.8e-06 s⁻¹
kon [2]: 440000 M⁻¹ s⁻¹
IC50 [3]: 0.045 µg/mL

B9: 2.449.1.3 (antibody, V domains shown)
VH: QVQLVESGGGLVKPGGSLRLSCAASGFTFSDYYMNWIRQAPGKGLEWVSYISSSGSIIYYADSVKGRFTISRDNAKNSLYLQMNSLRAEDTAVYYCAREGRIAARGMDVWGQGTTVTVSS
VL: DIQMTQSPSSLSASVGDRVSITCRPSQSFSRYINWYQQKPGKAPKLLIHAASSLVGGVPSRFSGSGSGTDFTLTISSLQPEDFATYYCQQTYSNPPITFGQGTRLEMK
notes: also called 2.449.1.3 (control)
PROLIFERATION ASSAY: MG-63 CELLS, IC50 [12]: 1.57 nM
Average pTyr Inhibition [13]: 99%
Kd [14]: 0.052 nM and 0.053 nM

B13: 2.449.1.3 (antibody, V domains shown)
VH: QVQLVESGGGLVKPGGSLRLSCAASGFTFSDYYMNWIRQAPGKGLEWVSYISSSGSIIYYADSVKGRFTISRDNAKNSLYLQMNSLRAEDTAVYYCAREGRIAARGMDVWGQGTTVTVSS
VL: DIQMTQSPSSLSASVGDRVSITCRPSQSFSRYINWYQQKPGKAPKLLIHAASSLVGGVPSRFSGSGSGTDFTLTISSLQPEDFATYYCQQTYSNPPITFGQGTRLEMK
notes: identified by its values; also called mAb 2.449.1.3
Kd [9]: 0.052 nM
PTYR Assay IC50 [1]: 0.021 µg/mL
Kd [2]: 0.14 nM
koff [2]: 6.16e-05 s⁻¹
kon [2]: 440000 M⁻¹ s⁻¹
Proliferation Assay: IC50 ng/ml (1-6-06) [10]: 179 ng/mL
Proliferation Assay: IC50 ng/ml (1-23-06) [10]: 237 ng/mL
Proliferation Assay: IC50 (1-6-06) [10]: 1.2 nM
Proliferation Assay: IC50 (1-23-06) [10]: 1.57 nM
pTyr Assay: % Inhibition @ 2 µg/ml [10]: 99%
IC50 [3]: 0.044 µg/mL
binding result [11]: no binding (tested: 10 ug/ml)
